± gives the standard deviation of the averaged measurements.
Test system: Saccharomyces cerevisiae
Experiment: protein stability index of tFT-peptide fusion (C-terminal peptide) (PSI (0-1 scale)); higher = more stable (slower turnover)
Details: genetic background: wild type; temperature: 30 C
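Further: PSI is a weighted mean of sequencing reads over stability bins, variants kept only with over 10 reads, mCherry proximal and sfGFP distal, peptide attached via GGGS linker.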

In order of falling protein stability index:
1. MCGLVGDVLAVG  0.762 ± 0.1
2. LVRPGSTRDKRT  0.736 ± 0.034
3. NFTPRKHARQRP  0.736 ± 0.0088
4. MYSSIFTHVFGV  0.734 ± 0.024
5. NGGFIGVYICRT  0.73 ± 0.13
6. MLRMSVSRGGLL  0.729 ± 0.011
7. LWGGAGLRCGGF  0.726 ± 0.017
8. NGVRGRGGQWVQ  0.725 ± 0.03
9. NKKKKQRMKRNG  0.719 ± 0.12
10. NITIEGVELERV  0.715 ± 0.029
11. MIKINHRIKIKY  0.7115 ± 0.0039
12. MLLLIDTSGGWS  0.71 ± 0.011
13. NASASTLPFPLD  0.71 ± 0.054
14. LTRQCLLPGWGL  0.707 ± 0.067
15. LYRILQAPRSSP  0.703 ± 0.079
16. NGMKDKTKIAKI  0.701 ± 0.008
17. NDGIKYQSEKRR  0.7 ± 0.02
18. LVWGQPWKMPVV  0.699 ± 0.012
19. NIKITVHSTMDM  0.698 ± 0.019
20. NKHYIQSHTDPD  0.698 ± 0.023
21. LYDQTSQDRRVF  0.6974 ± 0.004
22. LTSSYSLCFLAP  0.696 ± 0.011
23. LVMQSVQDDPVF  0.692 ± 0.0081
24. LVVEAIRSRAFK  0.6919 ± 0.0028
25. LYLLPLCRPFPY  0.692 ± 0.013
26. NGRPGPAEPELW  0.692 ± 0.043
27. NKKIKKDKIKGK  0.692 ± 0.031
28. LTTPTIAKTREN  0.691 ± 0.016
29. MGYDYAPISALF  0.691 ± 0.1
30. MKEKTNLETKDT  0.691 ± 0.013
31. LVGGFLVSGRAR  0.69 ± 0.051
32. MPFTSDAAALAP  0.689 ± 0.03
33. NHVWGSNRCSSC  0.689 ± 0.04
34. NIIYKRKKGRRW  0.6889 ± 0.001
35. MRPSLSDAMMSS  0.687 ± 0.055
36. LTRSIKVWRAMR  0.686 ± 0.018
37. LVAFNCVVLGKG  0.686 ± 0.014
38. NGKKYWQEYGWG  0.686 ± 0.025
39. MGWGALGARGLV  0.683 ± 0.029
40. LTVLPAVNCFPV  0.681 ± 0.021
41. LWRVRCGLGMSG  0.681 ± 0.15
42. LWGVGAGPEDVG  0.68 ± 0.014
43. MGGRAEGWVPVP  0.68 ± 0.15
44. LVDEGRGLRWSR  0.679 ± 0.0075
45. LVFPRCAFGFCF  0.6791 ± 0.0047
46. NGKGECSLESSS  0.677 ± 0.013
47. MRRTFQHQGRAN  0.676 ± 0.031
48. MGLRDPEWSGDI  0.673 ± 0.018
49. MSRRHDQESIHV  0.673 ± 0.021
50. NINVSFLSNECR  0.6735 ± 0.0021
51. LVPLPLPPPPPS  0.672 ± 0.0028
52. LVSLSPCPSSPL  0.671 ± 0.014
53. NDAKQKRLTFET  0.671 ± 0.048
54. NFTSYDIYLSCS  0.671 ± 0.016
55. NFIKCASDIRID  0.67 ± 0.027
56. LVVGFRVGLRGV  0.669 ± 0.035
57. NDHEQGPTQARG  0.669 ± 0.044
58. LVVGGLVLSGNL  0.668 ± 0.057
59. MGQVMTKQQRKI  0.668 ± 0.016
60. NIKIILPWNPPE  0.667 ± 0.013
61. NINHTNLKENKD  0.667 ± 0.0099
62. MRDRDSVDNMDG  0.666 ± 0.025
63. NEPQDQLQEQAT  0.665 ± 0.069
64. LTRLAYGLATAL  0.664 ± 0.019
65. NDQASVLSFRSV  0.664 ± 0.063
66. NGKFLREKMRWG  0.662 ± 0.036
67. MVIYGKEGWRIQ  0.661 ± 0.07
68. LVFRSMFFFRLF  0.66 ± 0.017
69. MPIKGRHSRSLK  0.66 ± 0.044
70. LYSAHLAPGNAD  0.656 ± 0.039
71. MPRRLSLNLDYL  0.6563 ± 0.0064
72. NGGSAKVYLGKI  0.652 ± 0.019
73. LYLRNFGSPFLV  0.65 ± 0.024
74. MFLVLEGIDSRV  0.65 ± 0.051
75. LYFGVGSICLVS  0.649 ± 0.043
76. LVGLNNSFVSKA  0.6448 ± 0.0039
77. LVQPHGSRFGLA  0.644 ± 0.012
78. MSGKIMVLQKEE  0.643 ± 0.013
79. NFPPTPECSFVS  0.643 ± 0.0086
80. MPPRVLSALAPL  0.642 ± 0.0023
81. LVCHDWFSFYMF  0.64 ± 0.035
82. MSIDQPLLGTGV  0.638 ± 0.034
83. LTSPPRPAFVRV  0.636 ± 0.035
84. NGGKDAVVLGGG  0.636 ± 0.054
85. MGGGGARAVVVG  0.627 ± 0.021
86. NARGRGAGGAST  0.626 ± 0.048
87. MSLSYYFSPVYS  0.625 ± 0.044
88. LYDSNLILSIPC  0.617 ± 0.14
89. MRSTFFFLQHRH  0.614 ± 0.013
90. NDFFVVFSVGEC  0.613 ± 0.041
91. NKKRKYRKNKRG  0.6096 ± 0.0051
92. NGCVRNVSSLVF  0.607 ± 0.066
93. MEAAARRMIKRK  0.6 ± 0.04
94. NGVVAYHVQSFC  0.6 ± 0.011
95. LVGTFTEKFRVC  0.578 ± 0.023
96. LVLLPLPLPLFP  0.578 ± 0.015
97. LVHVPVCFLSVL  0.557 ± 0.0021
98. NHRQPNSTKNRT  0.547 ± 0.044
99. LYHFYTASPCLI  0.536 ± 0.044
100. NISIFGSRLRVV  0.533 ± 0.034
101. LWCGGWVCVLGW  0.532 ± 0.013

From the supplement of paper PMC10724198
